Data from patent publication US8580258 (DEUTSCHES KREBSFORSCHUNGSZENTRUM STIFTUNG DES OFFENTLICHEN …, dated 2013).
Changes are numbered by the printed parent chain.

B1: L1-9.3 single chain antibody (murine L1-9.3 scFv fused to human c kappa constant region) (scFv)
scFv: DIQMTQTTSSLSAFLGDRVTISCRASQDISNYLNWYQQKPDGTVKLLIYYTSRLHSGVPSRFSGSGSGTDYSLTISNLEQEDFATYFCQQGNTLPWTFGGGTKLEIKRTSGPGDGGKGGPGKGPGGEGTKGTGPGGQVQLQQPGAELVKSGASVNLSCRASGYTFTRYWMLWVRQRPGHGLEWVGEINPRNDRTNYNEKFKTKATLTVDRSSSTAYMQLTSLTSEDSAVYFCALGGGYAMDYWGQGTSVTVSSGGAAAAPSVFIFPPSDEQLKSGTASVVCLLNNFYPREAKVQWKVDNALQSGNSQESVTEQDSKDSTYSLSSTLTLSKADYEKHKVYACEVTHQGLSSPVTKSFNRGESHHHHHH
notes: The expressed portion may include the pelB leader, which is cleaved off
B2: humanised antibody L1-hu3 (antibody, V domains shown)
VH: EVQLVQSGGGLVQSGGSLRLSCRASGYTFTRYWMLWVRQRPGKGLEWVAEINPRNDRTNYNEKFKTRFTISVDRSKNTLYLQMDSLRAEDTAVYFCALGGGYAMDYWGQGTLVTVSS
VL: DIQMTQSPSSLSASVGDRVTITCRASQDISNYLNWYQQKPGKAPKLLIYYTSRLHSGVPSRFSGSGSGTDYTLTISSLQPEDFATYFCQQGNTLPWTFGGGTKLEIK
B3: L1-9.3Hu single chain antibody (humanized L1-9.3Hu scFv fused to human c kappa constant region) (scFv)
scFv: DIQMTQSPSSLSASVGDRVTITCRASQDISNYLNWYQQKPGKAPKLLIYYTSRLHSGVPSRFSGSGSGTDYTFTISSLQPEDFATYFCQQGNTLPWTFGGGTKLEIKRTSGPGDGGKGGPGKGPGGEGTKGTGPGGEVQLVQSGGGLVQSGGSLRLSCRASGYTFTRYWMLWVRQRPGHGLEWVGEINPRNDRTNYNEKFKTRFTISVDRSKSTAYLQMDSLRAEDTAVYFCALGGGYAMDYWGQGTLVTVSSGGAAAAPSVFIFPPSDEQLKSGTASVVCLLNNFYPREAKVQWKVDNALQSGNSQESVTEQDSKDSTYSLSSTLTLSKADYEKHKVYACEVTHQGLSSPVTKSFNRGESHHHHHH
notes: The expressed portion may include the pelB leader
B4: L1-9.3Hu3 single chain antibody (humanized L1-9.3Hu3 scFv fused to human c kappa constant region) (scFv)
scFv: B3 scFv with F73L, H179K, G185A, S213N, A215L
notes: The expressed portion may include the pelB leader; also called L1-9Hu3
B5: monoclonal antibody L1-9.3, produced by the hybridoma cell deposited under DSMZ ACC2841 (antibody, V domains shown)
VH: QVQLQQPGAELVKSGASVNLSCRASGYTFTRYWMLWVRQRPGHGLEWVGEINPRNDRTNYNEKFKTKATLTVDRSSSTAYMQLTSLTSEDSAVYFCALGGGYAMDYWGQGTSVTVSS
VL: DIQMTQTTSSLSAFLGDRVTISCRASQDISNYLNWYQQKPDGTVKLLIYYTSRLHSGVPSRFSGSGSGTDYSLTISNLEQEDFATYFCQQGNTLPWTFGGGTKLEIK

Tests used:
streptavidin = streptavidin (UniProt P22629 37-163, limits assumed); test: ELISA, plate coated with streptavidin at 5 µg/ml, bacterial supernatants of 8 clones, anti-human kappa HRP conjugate, TMB
Method: Three rows of a 96 well plate were coated with 100 μl L1 antigen comprising the extracellolar domain of the L1 protein fused to an Fc fragment (5 μg/ml) in PBS for 1 hr at room temperature. A further three rows were coated with streptavidin (5 μg/ml) in PBS as a control.
The 96 well plate was washed four times with PBS 0.1% tween followed by the addition of 100 μl of anti-human kappa light chains bound and free antibody HRP conjugate (Sigma A7164) 1:5000 dilution in PBS 1% BSA. The conjugate was incubated for 1 hr at room temperature followed by five washes with PBS 0.1% tween.
The ELISA was developed by the addition of TMB 2-Component Microwell Peroxidase Substrate Kit (Kirkegaard and Perry Laboratories Inc., USA) according to the manufacturer's protocol. At least four L1 binding clones have been observed for each of three single chain antibody versions.

[1] = molecular target: T1, recombinant L1-Fc fusion protein (human L1-Fc protein comprising the ectodomain of L1) (human, UniProt P32004 20-1120); test: Biacore SPR, L1-Fc coupled to CM5 chip, antibody as analyte 6-3333 nM
T1 construct: extracellular domain; also called L-Fc; L1 antigen; not shown: Fc fragment

[2] = molecular target: T1, recombinant L1-Fc fusion protein (human …); test: Biacore SPR, L1-Fc on CM5 chip

Sequence of streptavidin (P22629 37-163 limits assumed): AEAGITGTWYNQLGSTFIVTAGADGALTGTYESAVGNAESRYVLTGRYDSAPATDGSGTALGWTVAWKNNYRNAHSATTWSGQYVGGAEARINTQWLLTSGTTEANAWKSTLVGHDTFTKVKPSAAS
T1 sequence (P32004 20-1120): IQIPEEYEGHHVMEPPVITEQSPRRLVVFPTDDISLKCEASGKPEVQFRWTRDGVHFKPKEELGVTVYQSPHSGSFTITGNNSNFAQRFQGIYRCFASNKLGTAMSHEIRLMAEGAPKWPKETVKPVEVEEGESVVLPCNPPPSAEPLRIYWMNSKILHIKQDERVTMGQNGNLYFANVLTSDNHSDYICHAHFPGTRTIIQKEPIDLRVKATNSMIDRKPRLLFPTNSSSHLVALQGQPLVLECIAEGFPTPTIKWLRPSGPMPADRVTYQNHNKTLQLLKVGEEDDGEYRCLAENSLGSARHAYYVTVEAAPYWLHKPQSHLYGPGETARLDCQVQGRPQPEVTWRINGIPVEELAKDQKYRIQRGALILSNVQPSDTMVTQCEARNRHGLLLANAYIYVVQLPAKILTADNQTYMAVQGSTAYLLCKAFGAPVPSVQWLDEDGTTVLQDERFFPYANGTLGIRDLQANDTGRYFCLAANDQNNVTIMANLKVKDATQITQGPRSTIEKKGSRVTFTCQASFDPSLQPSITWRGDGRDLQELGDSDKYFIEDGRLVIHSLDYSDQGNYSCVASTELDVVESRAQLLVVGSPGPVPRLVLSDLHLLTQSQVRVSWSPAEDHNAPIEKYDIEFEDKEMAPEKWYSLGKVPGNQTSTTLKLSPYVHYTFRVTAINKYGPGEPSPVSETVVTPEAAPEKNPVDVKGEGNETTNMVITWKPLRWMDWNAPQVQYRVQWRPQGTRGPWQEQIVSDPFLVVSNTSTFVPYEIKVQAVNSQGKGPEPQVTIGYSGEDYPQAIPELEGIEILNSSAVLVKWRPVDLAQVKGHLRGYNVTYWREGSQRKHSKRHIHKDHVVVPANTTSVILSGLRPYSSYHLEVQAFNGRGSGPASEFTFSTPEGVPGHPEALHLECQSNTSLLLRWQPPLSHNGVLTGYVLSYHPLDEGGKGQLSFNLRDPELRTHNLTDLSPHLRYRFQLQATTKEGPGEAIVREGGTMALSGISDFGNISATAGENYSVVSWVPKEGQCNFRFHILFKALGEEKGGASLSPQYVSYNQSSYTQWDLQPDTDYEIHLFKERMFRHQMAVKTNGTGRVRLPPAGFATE

Binder | binding result (streptavidin) | Kd [1] | koff [1] | kon [1] | further results
B1 | no binding |  |  |  | 
B2 |  | 0.081 nM | 6.5e-05 s⁻¹ | 800000 M⁻¹ s⁻¹ | 
B3 | no binding |  |  |  | 
B4 | no binding |  |  |  | 
B5 |  | 0.085 nM | 2.2e-05 s⁻¹ | 260000 M⁻¹ s⁻¹ | Kd [2]: 0.085 nM; koff [2]: 2.2e-05 s⁻¹; kon [2]: 260000 M⁻¹ s⁻¹
